Patent US20260234738A1 (Regeneron, published 2026)
Changes are numbered by the printed parent chain.

B1: mAb10978 (antibody)
heavy chain: QVQLVESGGGVVQPGRSLRLSCAASGFTFSSYAMHWVRQAPGKGLEWVAVISYDGSNKYYADSVKGRFTISRDNSKNTLYLQMNSLRAEDTAVYYCARDGRTITMVRGVIDDAFDIWGQGTMVTVSSASTKGPSVFPLAPCSRSTSESTAALGCLVKDYFPEPVTVSWNSGALTSGVHTFPAVLQSSGLYSLSSVVTVPSSSLGTKTYTCNVDHKPSNTKVDKRVESKYGPPCPPCPAPGGGGPSVFLFPPKPKDTLMISRTPEVTCVVVDVSQEDPEVQFNWYVDGVEVHNAKTKPREEQFNSTYRVVSVLTVLHQDWLNGKEYKCKVSNKGLPSSIEKTISKAKGQPREPQVYTLPPSQEEMTKNQVSLTCLVKGFYPSDIAVEWESNGQPENNYKTTPPVLDSDGSFFLYSRLTVDKSRWQEGNVFSCSVMHEALHNHYTQKSLSLSLGK
light chain: not shown
B2: mAb11010 (antibody, V domains shown)
VH: QVQLVESGGGVVQPGRSLRLSCAASGFTFSSYGMHWVRQAPGKGLEWVAVISYDGSYKYYADSVKGRFTISRDNSKNTLYLQMNSLRAEDTAVYYCAIDGGTVTTIFDYWGQGTLVTVSS
VL: not shown
B3: mAb11004 (antibody, V domains shown)
VH: QVQLVESGGGVVQPGRSLRLSCVASGFTFSIYGMDWVRQAPGKGLEWVAVISYDGSNKYYADSVKGRFTISRDNSKNTLYLQMNSLRPEDTAVYYCAKDREAAADAFDIWGQGTMVTVSS
VL: DIQMTQSPSSVSASVGDRVTITCRASQGISSWLAWYQQKPGKAPKLLIYAASSLHSGVPSRFSGSGSGTDFTLTISSLQPEDFATYYCQQANSFRLTFGGGTKVEIK
B4: mAb11006 (antibody, V domains shown)
VH: EVQLVESGGGLVQPGGSLRLSCAASGFIVSRNYMSWVRQAPGKGLEWVSVIYSGGSTFYADSVKGRFTISRHNSKNTLYLQMNSLKAEDTAVYYCARELRGYFDYWGQGTLVTVSS
VL: DIQLTQSPSFLSASVGDRVTITCWASQGISSYLAWYQQKPGKAPKLLIYAASTLQSGVPSRFSGSGSGTEFTLTISSLQPEDFATYYCQLLNSYPYTFGQGTKLEIK
B5: mAb11008 (antibody, V domains shown)
VH: EVQLVESGGGLVQPGGSLRLSCAASGFTVSSNYMTWVRQAPGKGLEWVSVIYSGGSTFYADSVKGRFTISRHNSENTLYLQMNSLRAEDTAVYYCARDLAAAGTDYWGQGALVTVSS
VL: B4 VL with E81D, L90H, P95L
B6: mAb10998 (antibody, V domains shown)
VH: EVQLVESGGGLVHPGGSLRLSCAASGLTVSSNYMSWVRQAPGKGLEWVSVIYSGGSTYYADSVKGRFTISRHNSKNTLFLQMNSLRAEDTAVYYCARDRPITGTTLDVWGQGTTVTVSS
VL: DIQMTQSPSSLFASVGDRVTITCRASQSISSYLNWYQQKPGKAPKLLIYAASSLQSGVPSRFSGSGSGTDFTLTISSLQPEDFAFYYCQQTYSTPPITFGQGTRLEIK
B7: mAb11002 (antibody, V domains shown)
VH: EVQLVESGGGLVQPGGSLRLSCAASGFTVSSNYMSWVRQAPGKGLEWVSVIYSGGSTFYADSVKGRFTISRHNSKNTLYLQMNSLRAEDTAVYYCAREGYGMDVWGQGTTVTVSS
VL: not shown
B8: mAb10956 (antibody, V domains shown)
VH: EVQLVESGGGLVQPGGSLRLSCAASGLTVSSNYMSWVRQAPGKGLEWVSVIYSGGSTFYADSVKGRFTISRDNSKNTLYLQMNSLRAEDTAVYYCARDLIKYGMDVWGQGTTVTVSS
VL: not shown
B9: mAb10957 (antibody, V domains shown)
VH: B8 VH with L27V, Y79F, A87I, I100G, K101P
VL: DIQLTQSPSFLSASVGDRVTITCRASQGISSYLAWYQQKPGKAPKLLIYAASTLQSGVPSRFSGSGSGTQFILTISSLQPEDFATYYCQQLNSYPGFTFGPGTKVDIKR

Columns and labels:
SARS-COV-2 RBD-hFc = SARS-COV-2 RBD-hFc (SARS-CoV-2)
[1] = molecular target: SARS-COV-2 spike protein receptor binding domain (amino acids Arg319 to Phe541) expressed with the F (SARS-CoV-2)
[2] = molecular target: Bt-SARS-CoV-2 Spike Protein (RBD) (R319-F541).mFc (SARS-CoV-2); experiment: Luminex beads, supernatant
[3] = molecular target: SARS-CoV-2 Spike Protein (RBD) (R319-F541).hFc (SARS-CoV-2); experiment: Luminex beads, supernatant
[4] = molecular target: SARS-CoV-2 Spike Protein (RBD) (R319-F541).mFc (SARS-CoV-2); experiment: Luminex beads, supernatant

Row | Binder | Kd [1] [nM] | t½ [1] [h] | koff [1] [s⁻¹] | kon [1] [M⁻¹ s⁻¹] | further results
1 | B1 |  |  |  |  | IC50 (read off the curve) (SARS-COV-2 RBD-hFc): ~0.1 nM
2 | B2 | ≤ 0.0236 | ≥ 19.2 |  |  | 
3 | B3 | 0.191 | 2.9 | 6.63e-05 | 346000 | 
4 | B4 | ≤ 0.0532 | ≥ 19.2 |  |  | 
5 | B5 | 0.715 | 1.67 | 0.000115 | 161000 | 
6 | B6 | 1.58 | 0.37 | 0.000521 | 330000 | 
7 | B7 | 16.7 | 0.0433 |  |  | 
8 | B8 |  |  |  |  | MFI [2]: 12900 MFI; MFI [3]: 30200 MFI; MFI [4]: 28300 MFI
9 | B9 |  |  |  |  | MFI [2]: 10600 MFI; MFI [3]: 22600 MFI; MFI [4]: 18700 MFI
